Among the data in publication PMC9250297 are stoichiometry N values, retold here.

Assay [1] has as its target HaloTag7 C61S single mutant (UniProt P0A3G2). Put plainly: SDS-PAGE gel shift assay. A general note: Mobility shift assays separate free from complexed probe on a gel.
The target in assay [2] is HaloTag7 C262S single mutant (UniProt P0A3G2). The assay can be described thus: SDS-PAGE gel shift assay.

Consider “HaloTag7 C61S single mutant (from UniProt P0A3G2 1-293) (enzyme)”, for which the stoichiometry N in assay [1] came out at 2.

Turning to “HaloTag7 C262S single mutant (from UniProt P0A3G2 1-293) (enzyme)”, the stoichiometry N in assay [2] was determined as 2.

The term stoichiometry N denotes a count of units in the complex or per binding partner.
